Experiment [1] deals with T1, human Fcγ receptor RIIIA (CD16a) (human, UniProt P08637 17-208).
T1 construct: bought recombinant protein; also called hFcγR
The experiment is described as follows: SPR (ProteOn XPR36), biotinylated Fc construct on NLC chip, hFcγR as analyte, KD,app.

In experiment [2] the target is T2, human Fcγ receptor RIIB/C (CD32b/c) (human, UniProt P31994 46-217).
T2 construct: bought recombinant protein; also called CD32c; hFcγR
T2 sequence (looked up): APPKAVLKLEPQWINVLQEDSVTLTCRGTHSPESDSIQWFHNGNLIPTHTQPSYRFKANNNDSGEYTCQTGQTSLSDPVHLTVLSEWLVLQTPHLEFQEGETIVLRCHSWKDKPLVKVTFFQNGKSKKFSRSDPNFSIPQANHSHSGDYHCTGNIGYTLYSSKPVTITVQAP
The description is as above.

The target of experiment [3] is T3, human Fcγ receptor RIIA (CD32a) (human, UniProt P12318 36-218).
T3 construct: bought recombinant protein; also called hFcγR
T3 sequence (looked up): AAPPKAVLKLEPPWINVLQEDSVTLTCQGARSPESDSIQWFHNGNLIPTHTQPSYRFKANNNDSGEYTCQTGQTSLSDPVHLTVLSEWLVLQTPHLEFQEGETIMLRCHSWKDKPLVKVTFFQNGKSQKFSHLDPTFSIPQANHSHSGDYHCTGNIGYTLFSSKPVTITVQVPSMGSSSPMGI
Described as above.

For experiment [4], the target named is T4, human Fcγ receptor RI (CD64) (human, UniProt P12314 16-288).
T4 construct: bought recombinant protein; also called hFcγRI; hFcγR
T4 sequence (P12314 16-288 limits assumed): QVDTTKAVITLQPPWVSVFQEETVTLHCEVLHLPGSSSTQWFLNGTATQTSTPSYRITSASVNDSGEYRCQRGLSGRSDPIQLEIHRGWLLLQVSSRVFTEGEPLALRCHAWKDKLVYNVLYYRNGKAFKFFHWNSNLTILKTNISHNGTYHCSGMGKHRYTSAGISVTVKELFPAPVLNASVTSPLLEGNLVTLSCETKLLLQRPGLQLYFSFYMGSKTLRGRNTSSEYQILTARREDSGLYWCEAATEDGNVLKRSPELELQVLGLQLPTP
The experiment is described as above.

The target in experiment [5] is T5, EGFR-ECD (epidermal growth factor receptor extracellular domain produced in HEK293 cells) (UniProt P00533 25-645, limits assumed).
T5 construct: extracellular domain
Kind of experiment: SPR (Proteon GLC chip), EGFR-ECD injected in the second injection over construct B bound to immobilised CD47.

Experiment [6] concerns the target T6, human CD47 (human, UniProt Q08722 19-139).
T6 construct: extracellular domain; also called CD47 ECD
The experiment is described as follows: SPR (Proteon GLC chip), CD47 immobilised by amine coupling, construct injected as analyte in the first injection (100 nM per paragraph 377).

Experiment [7] addresses T6, human CD47. The experiment is described as follows: SPR as in Example 1.
Experiment [8] has as its target T6, human CD47. Kind of experiment: SPR, 25 C, 1:1 Langmuir fit. Background: SPR reads the build-up and loss of mass on a sensor chip optically.
The target of another experiment is T7, mouse CD47 (mouse, UniProt Q61735 19-140, limits assumed).
T7 construct: also called mouse CD47 protein
T7 sequence (looked up): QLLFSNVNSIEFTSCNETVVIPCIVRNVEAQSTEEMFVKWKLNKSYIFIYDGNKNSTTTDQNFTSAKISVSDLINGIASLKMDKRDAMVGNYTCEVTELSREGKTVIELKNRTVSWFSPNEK
Kind of experiment: SPR, 25 C, 1:1 Langmuir fit.

For experiment [9], the target named is T1, human Fcγ receptor RIIIA (CD16a). Kind of experiment: SPR (ProteOn XPR36), biotinylated Fc construct on NLC chip, hFcγR as analyte.
Experiment [10] concerns the target T3, human Fcγ receptor RIIA (CD32a). Described as above.
In experiment [11] the target is T2, human Fcγ receptor RIIB/C (CD32b/c). Described as above.
Experiment [12] has as its target T4, human Fcγ receptor RI (CD64). The description is as above.
Experiment [13] has as its target T5, EGFR-ECD (epidermal growth factor …). Kind of experiment: SPR (Proteon GLC chip), EGFR-ECD injected in the second injection over construct C bound to immobilised CD47.
Experiment [14] has as its target T6, human CD47. The experiment is described as follows: SPR (Biacore T100 and ProteOn XPR36).
The target in experiment [15] is T5, EGFR-ECD (epidermal growth factor …). Kind of experiment: SPR (Proteon GLC chip), EGFR-ECD injected in the second injection over construct A bound to immobilised CD47.

T1 sequence (P08637 17-208 limits assumed): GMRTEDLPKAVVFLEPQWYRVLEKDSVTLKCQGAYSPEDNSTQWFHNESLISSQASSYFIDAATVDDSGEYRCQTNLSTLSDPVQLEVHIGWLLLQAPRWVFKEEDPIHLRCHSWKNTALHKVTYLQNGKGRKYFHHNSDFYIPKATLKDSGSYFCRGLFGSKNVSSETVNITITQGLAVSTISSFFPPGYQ
T6 sequence (Q08722 19-139 limits assumed): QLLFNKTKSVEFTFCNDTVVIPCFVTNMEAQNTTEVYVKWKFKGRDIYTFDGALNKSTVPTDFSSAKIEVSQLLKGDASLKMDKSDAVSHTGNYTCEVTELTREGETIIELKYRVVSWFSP

As to “Fc variant construct IgG4_S228P, L235E (Fc fusion)”, the Kd in experiment [1] stood at 2400 nM; in experiment [2], 1100 nM; in experiment [3] it was 1200 nM; in [4] it was 60 nM.

B1: single-arm SIRP-α-Fc fusion, heterodimer of SEQ ID NO: 139 (an Fc variant) and SEQ ID NO: 142 (a SIRP-α-Fc fusion) (Fc fusion)
chain 1: EEELQIIQPDKSVLVAAGETATLRCTITSLFPVGPIQWFRGAGPGRELIYNQREGPFPRVTTVSDTTKRNNMDFSIRIGAITPADAGTYYCVKFRKGSPDDVEFKSGAGTELSVRAKPSDKTHTCPPCPAPEAAGAPSVFLFPPKPKDTLMISRTPEVTCVVVDVSHEDPEVKFNWYVDGVEVHNAKTKPREEQYASTYRVVSVLTVLHQDWLNGKEYKCKVSNKALPAPIEKTISKAKGQPREPQVYTLPPSREEMTKNQVSLWCLVKGFYPSDIAVEWESNGQPENNYKTTPPVLDSDGSFFLYSKLTVDKSRWQQGNVFSCSVMHEALHNHYTQKSLSLSPGK
chain 2: DKTHTCPPCPAPEAAGAPSVFLFPPKPKDTLMISRTPEVTCVVVDVSHEDPEVKFNWYVDGVEVHNAKTKPREEQYASTYRVVSVLTVLHQDWLNGKEYKCKVSNKALPAPIEKTISKAKGQPREPQVYTLPPSREEMTKNQVSLSCAVKGFYPSDIAVEWESNGQPENNYKTTPPVLDSDGSFFLVSKLTVDKSRWQQGNVFSCSVMHEALHNHYTQKSLSLSPGK
notes: knob and hole heterodimer
With B1, the binding result in experiment [5] was “no binding”; in the experiment with human CD47 [6], “binds”.

B2: SIRP-α D1 variant fused to Fc variant IgG1 L234A, L235A, G237A, N297A, SEQ ID NO: 96 (Fc fusion)
chain: EEELQIIQPDKSVLVAAGETATLRCTITSLFPVGPIQWFRGAGPGRVLIYNQRQGPFPRVTTVSDTTKRNNMDFSIRIGNITPADAGTYYCIKFRKGSPDDVEFKSGAGTELSVRAKPSDKTHTCPPCPAPEAAGAPSVFLFPPKPKDTLMISRTPEVTCVVVDVSHEDPEVKFNWYVDGVEVHNAKTKPREEQYASTYRVVSVLTVLHQDWLNGKEYKCKVSNKALPAPIEKTISKAKGQPREPQVYTLPPSREEMTKNQVSLTCLVKGFYPSDIAVEWESNGQPENNYKTTPPVLDSDGSFFLYSKLTVDKSRWQQGNVFSCSVMHEALHNHYTQKSLSLSPGK
For B2, the results for the Kd with human CD47 [7], in the experiment with human CD47 [8] and with mouse CD47 were 0.0351 nM, 0.0104 nM and 33.2 nM, respectively. For the same molecule, the binding result in [9], in [10], in [11] and in [12] was “no binding (tested: 5000 nM)” in each case.

B3: single-arm SIRP-α-Fc fusion, heterodimer of SEQ ID NO: 139 (an Fc variant) and SEQ ID NO: 138 (a SIRP-α Fc fusion) (Fc fusion)
chain 1: EEELQIIQPDKSVLVAAGETATLRCTITSLFPVGPIQWFRGAGPGRVLIYNQRQGPFPRVTTVSDTTKRNNMDFSIRIGAITPADAGTYYCIKFRKGSPDDVEFKSGAGTELSVRAKPSDKTHTCPPCPAPEAAGAPSVFLFPPKPKDTLMISRTPEVTCVVVDVSHEDPEVKFNWYVDGVEVHNAKTKPREEQYASTYRVVSVLTVLHQDWLNGKEYKCKVSNKALPAPIEKTISKAKGQPREPQVYTLPPSREEMTKNQVSLWCLVKGFYPSDIAVEWESNGQPENNYKTTPPVLDSDGSFFLYSKLTVDKSRWQQGNVFSCSVMHEALHNHYTQKSLSLSPGK
chain 2: DKTHTCPPCPAPEAAGAPSVFLFPPKPKDTLMISRTPEVTCVVVDVSHEDPEVKFNWYVDGVEVHNAKTKPREEQYASTYRVVSVLTVLHQDWLNGKEYKCKVSNKALPAPIEKTISKAKGQPREPQVYTLPPSREEMTKNQVSLSCAVKGFYPSDIAVEWESNGQPENNYKTTPPVLDSDGSFFLVSKLTVDKSRWQQGNVFSCSVMHEALHNHYTQKSLSLSPGK
notes: knob and hole heterodimer
As for B3, the binding result was “no binding” in experiment [13] and “binds” with human CD47 [6].

B4: SIRP-α-Fc fusion, homodimer of SEQ ID NO: 136 (Fc fusion)
chain: EEELQIIQPDKSVLVAAGETATLRCTITSLFPVGPIQWFRGAGPGRELIYNQREGPFPRVTTVSDTTKRNNMDFSIRIGAITPADAGTYYCVKFRKGSPDDVEFKSGAGTELSVRAKPSDKTHTCPPCPAPEAAGAPSVFLFPPKPKDTLMISRTPEVTCVVVDVSHEDPEVKFNWYVDGVEVHNAKTKPREEQYASTYRVVSVLTVLHQDWLNGKEYKCKVSNKALPAPIEKTISKAKGQPREPQVYTLPPSREEMTKNQVSLTCLVKGFYPSDIAVEWESNGQPENNYKTTPPVLDSDGSFFLYSKLTVDKSRWQQGNVFSCSVMHEALHNHYTQKSLSLSPG
B4 gave a Kd in the experiment with human CD47 [14] of 0.139 nM. For the same molecule, the binding result in experiment [15] is reported as “no binding”.

B5: SIRP-α Fc construct with Fc variant IgG2_N297A, SEQ ID NO: 128 (Fc fusion)
chain: EEELQIIQPDKSVLVAAGETATLRCTITSLFPVGPIQWFRGAGPGRVLIYNQRQGPFPRVTTVSDTTKRNNMDFSIRIGNITPADAGTYYCIKFRKGSPDDVEFKSGAGTELSVRAKPSERKCCVECPPCPAPPVAGPSVFLFPPKPKDTLMISRTPEVTCVVVDVSHEDPEVQFNWYVDGVEVHNAKTKPREEQFASTFRVVSVLTVVHQDWLNGKEYKCKVSNKGLPAPIEKTISKTKGQPREPQVYTLPPSREEMTKNQVSLTCLVKGFYPSDIAVEWESNGQPENNYKTTPPMLDSDGSFFLYSKLTVDKSRWQQGNVFSCSVMHEALHNHYTQKSLSLSPGK
With B5, the binding result in experiment [9], in experiment [10], in experiment [11] and in experiment [12] was “no binding (tested: 5000 nM)” throughout.

The values are drawn from patent US20200239543A1 (ALX ONCOLOGY, published 2020).
